Target: the molecule itself
Assay: AUC

Protein	binding result
Sirt1-214-664 (domain or fragment) ELDDMTLWQIVINILSEPPKRKKRKDINTIEDAVKLLQECKKIIVLTGAGVSVSCGIPDFRSRDGIYARLAVDFPDLPDPQAMFDIEYFRKDPRPFFKFAKEIYPGQFQPSLCHKFIALSDKEGKLLRNYTQNIDTLEQVAGIQRIIQCHGSFATASCLICKYKVDCEAVRGDIFNQVVPRCPRCPADEPLAIMKPEIVFFGENLPEQFHRAMKYDKDEVDLLIVIGSSLKVRPVALIPSSIPHEVPQILINREPLPHLHFDVELLGDCDVIINELCHRLGGEYAKLCCNPVKLSEITEKPPRTQKELAYLSELPPTPLHVSEDSSSPERTSPPDSSVIVTLLDQAAKSNDDLDVSESKGCMEEKPQEVQTSRNVESIAEQMENPDLKNVGSSTGEKNERTSVAGTVRKCWPNRVAKEQISRRLDGNQYLFLPPNRYIFHGAEVYSDSEDD	binds
Sirt1-214-747 (domain or fragment) ELDDMTLWQIVINILSEPPKRKKRKDINTIEDAVKLLQECKKIIVLTGAGVSVSCGIPDFRSRDGIYARLAVDFPDLPDPQAMFDIEYFRKDPRPFFKFAKEIYPGQFQPSLCHKFIALSDKEGKLLRNYTQNIDTLEQVAGIQRIIQCHGSFATASCLICKYKVDCEAVRGDIFNQVVPRCPRCPADEPLAIMKPEIVFFGENLPEQFHRAMKYDKDEVDLLIVIGSSLKVRPVALIPSSIPHEVPQILINREPLPHLHFDVELLGDCDVIINELCHRLGGEYAKLCCNPVKLSEITEKPPRTQKELAYLSELPPTPLHVSEDSSSPERTSPPDSSVIVTLLDQAAKSNDDLDVSESKGCMEEKPQEVQTSRNVESIAEQMENPDLKNVGSSTGEKNERTSVAGTVRKCWPNRVAKEQISRRLDGNQYLFLPPNRYIFHGAEVYSDSEDDVLSSSSCGSNSDSGTCQSPSLEEPMEDESEIEEFYNGLEDEPDVPERAGGAGFGTDGDDQEAINEAISVKQEVTDMNYPSNKS	binds

Reference: PMC3654483 (Bioscience Reports, 2013)
